Laboratory results published in publication PMC9335323, “Single crystal spectroscopy and multiple structures from one crystal (MSOX) define catalysis in copper nitrite reductases” (Proceedings of the National Academy of Sciences of the …, 2022).

Assays:
Br2DNiR = target: T1, Br2DNiR (Bradyrhizobium sp. ORS 375, UniProt H0SLX7); assay: X-ray crystal structure (MSOX, nitrite-soaked crystal, DS1 […] Å); format: binding; conditions: 200 mM NaNO2 soak, pH 5.5, 100 K; side-on at type-2 Cu, full occupancy
T1 construct: gene nirK; two-domain enzyme, recombinant in E. coli with 6xHis tag cleaved by TEV; Cu-loaded T1 and T2 sites; CuNiR homotrimer, site at interface of two monomers
T1 sequence (H0SLX7 25-364): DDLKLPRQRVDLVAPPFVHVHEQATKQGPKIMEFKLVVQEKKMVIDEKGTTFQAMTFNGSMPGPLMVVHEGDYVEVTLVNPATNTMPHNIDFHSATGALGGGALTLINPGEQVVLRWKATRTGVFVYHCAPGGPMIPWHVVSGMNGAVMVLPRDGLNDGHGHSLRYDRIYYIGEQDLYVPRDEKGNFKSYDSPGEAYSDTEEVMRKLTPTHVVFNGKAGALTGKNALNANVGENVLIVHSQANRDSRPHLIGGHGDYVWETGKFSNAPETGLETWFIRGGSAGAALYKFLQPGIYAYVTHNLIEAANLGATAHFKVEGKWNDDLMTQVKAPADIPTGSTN

O=NO = assay: purified protein; conditions: conditions in supplement only

`O=NO` [nitrite] was tested, and the “X-ray crystal structure (MSOX, nitrite-soaked crystal, DS1 1.19 Å)” value (Br2DNiR) was “full occupancy nitrite is seen bound to fully occupied T2Cu in a “side-on” orientation”.
Br2DNiR (Bradyrhizobium sp. ORS 375) gave a Km (O=NO) of 7.4 ± 1.2 µM and a kcat (O=NO) of 9 ± 0.5 s⁻¹.
